From paper PMC9975944 (The EMBO Journal, 2023) come the findings set out here.

The target in the test is T1, GFP-SOX7 (UniProt Q9BT81 1-388).
T1 sequence: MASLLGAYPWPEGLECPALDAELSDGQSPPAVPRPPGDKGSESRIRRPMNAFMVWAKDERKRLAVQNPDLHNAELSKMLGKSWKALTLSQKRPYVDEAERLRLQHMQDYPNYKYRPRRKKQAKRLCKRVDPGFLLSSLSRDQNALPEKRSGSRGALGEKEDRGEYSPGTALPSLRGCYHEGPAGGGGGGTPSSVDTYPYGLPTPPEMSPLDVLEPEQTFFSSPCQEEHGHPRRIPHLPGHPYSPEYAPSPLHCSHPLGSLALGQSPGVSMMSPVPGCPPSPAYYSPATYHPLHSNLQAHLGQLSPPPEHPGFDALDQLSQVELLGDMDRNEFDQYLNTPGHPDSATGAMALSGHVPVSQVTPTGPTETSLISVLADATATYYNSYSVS
The experiment in a line: single-molecule two-colour coincidence spectroscopy.

B1: HEY1-Cherry (natural protein)
chain: MKRAHPEYSSSDSELDETIEVEKESADENGNLSSALGSMSPTTSSQILARKRRRGIIEKRRRDRINNSLSELRRLVPSAFEKQGSAKLEKAEILQMTVDHLKMLHTAGGKGYFDAHALAMDYRSLGFRECLAEVARYLSIIEGLDASDPLRVRLVSHLNNYASQREAASGAHAGLGHIPWGTVFGHHPHIAHPLLLPQNGHGNAGTTASPTEPHHQGRLGSAHPEAPALRAPPSGSLGPVLPVVTSASKLSPPLLSSVASLSAFPFSFGSFHLLSPNALSPSAPTQAANLGKPYRPWGTEIGAF
B1: the coincidence ratio came out at 0.66.
